This data set concerns the target CD71 (transferrin receptor), used in ELISA (UniProt P02786 89-760). Briefly: ELISA. Background: In an ELISA, binding on a coated surface is turned into a signal by an enzyme label.

Sequence of CD71 (transferrin receptor), used in ELISA (P02786 89-760): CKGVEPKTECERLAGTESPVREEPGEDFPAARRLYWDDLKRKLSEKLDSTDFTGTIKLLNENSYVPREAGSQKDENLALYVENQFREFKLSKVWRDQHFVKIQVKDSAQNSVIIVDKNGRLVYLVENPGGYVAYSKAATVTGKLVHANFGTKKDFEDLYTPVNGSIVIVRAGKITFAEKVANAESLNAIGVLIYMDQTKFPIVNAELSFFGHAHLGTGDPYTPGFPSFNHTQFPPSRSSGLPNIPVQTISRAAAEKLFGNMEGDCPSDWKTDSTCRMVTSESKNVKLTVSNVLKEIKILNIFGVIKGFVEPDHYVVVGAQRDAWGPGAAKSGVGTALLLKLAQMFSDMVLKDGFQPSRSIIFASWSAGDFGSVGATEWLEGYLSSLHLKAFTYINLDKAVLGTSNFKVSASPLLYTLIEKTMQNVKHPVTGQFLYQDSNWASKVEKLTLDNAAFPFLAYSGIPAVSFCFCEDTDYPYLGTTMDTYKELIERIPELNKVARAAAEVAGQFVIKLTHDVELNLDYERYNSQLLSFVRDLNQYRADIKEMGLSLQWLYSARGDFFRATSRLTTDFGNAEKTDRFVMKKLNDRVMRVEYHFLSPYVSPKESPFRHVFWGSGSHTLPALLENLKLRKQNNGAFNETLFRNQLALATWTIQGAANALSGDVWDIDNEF

B1: XQ-2d (ssDNA)
DNA: ACTCATAGGGTTAGGGGCTGCTGGCCAGATACTCAGATGGTAGGGTTACTATGAGC
Take B1: binding was characterised by a dissociation constant (Kd) of 50.5 ± 27.3 nM.

For the origin of these results see article PMC6625514.
